Results reported in article PMC5587734.

Columns and labels:
MBD2 MBD (chicken) = MBD2 MBD (chicken) (chicken, UniProt Q5EFL0 1-71); test: NMR
MBD2 MBD+IDR (chicken) = MBD2 MBD+IDR (chicken) (chicken, UniProt Q5EFL0 1-117); test: NMR

B1: INV mCpG DNA (dsDNA)
DNA 1: GGACCGACTC
DNA 2: GAGTCGGTCC
modifications: 5mC at position 5 of strand 1; complement methylation implied
Q: Does B1 bind (MBD2 MBD (chicken))?
A: Result: binds

Q: Does B1 bind (MBD2 MBD+IDR (chicken))?
A: Result: binds
